This series is described as follows: soluble on expression in E. coli; label from the status in PepcDB or PDB records.
With “MGSDKIHHHHHHMTDLAPILAEADKALPQSLDRLFDLVRIASISTDPAYKADCRKAAEWLAQELKGLGFNASVRDTPGHPMVVGHHDADRPDAPHVLFYGHYDVQPVDPLDLWENDPFEPAIKEIEPGRKVITGRGTSDDKGQLMTFVEACRAYKAVHGGLPIKITILFEGEEESGSPSLKPFLAANEDELKCDFALVCDTGMWDRETPAIAAALRGLVGEEVTVTAADRDLHSGLFGGAAANPIHILAKVLADLHDETGRVTIDGFYEGVEETPVNIKASWEKLGRTADKFLNDVGLSIPSGETGRSVLELTWARPTAEVNGITGGYTGEGFKTVIASKASAKVSFRLVGEQDPAKIRENFRAFVKARIPGDCSVEFHEHGASPAIQLPYDSPFLTKAKSALSDEWPKPAEVIGMGGSIPIVGDFQTMLGMDSLLVGFGLVDDRIHSPNEKYELESFHKGIRSWIRILDALAH”, the “soluble on expression in E. coli” value is on record as “not soluble”. “VPLTVADIDRWNAQAVREVFHAASARAEVTFEASRQLAALSIFANSGGKTAEAAAHHNAGIRRDLDAHGNEALAVARAADRAADGIVKVQSELAALRHAAAAAELTIDALINRVVPIPGLRSTEAQWARTLAKQTELQAELDAIMAEANAVDEELASAVNMADGDAPIPADSGPPVGPEGLTPTQLASDANEERLREERARLQAHLERLQAEYDQLSVRAARDYHNGILDGDAVGRLAALTDELSAARGRLGELDAVDEALSRAPETYLTQLQIPEDPNQQVLAAVAVGNPDTAANVSVTVPGVGSTTRGALPGMVTEARDLRSEVIRQLNAAGKPASVATIAWMGYHPPPNPLDTGSAGDLWQTMTDGQAHAGAADLSRYLQQVRANNPSGHLTVLGHSYGSLTASLALQDLDAQSAHPVNDVVFYGSPGLELYSPAQLGLDHGHAYVMQAPHDLITNLVAPLAPLHGWGLDPYLTPGFTELSSQAGFDPGGIWRDGVYAHGDYPRSFLDAAGQPQLRMSGYNLAAIAAGLPDNTVGPPLLPPILGGGMPAAPGPALRGGR”: the “soluble on expression in E. coli” value is “not soluble”. As to “LRNATQRMFEIDYSRDSFLKDGQPFRYISGSIHYSRVPRFYWKDRLLKMKMAGLNAIQTYVPWNFHEPWPGQYQFSEDHDVEYFLRLAHELGLLVILRPGPYICAEWEMGGLPAWLLEKESILLRSSDPDYLAAVDKWLGVLLPKMKPLLYQNGGPVITVQVENEYGSYFACDFDYLRFLQKRFRHHLGDDVVLFTTDGAHKTFLKCGALQGLYTTVDFGTGSNITDAFLSQRKCEPKGPLINSEFYTGWLDHWGQPHSTIKTEAVASSLYDILARGASVNLYMFIGGTNFAYWNGANSPYAAQPTSYDYDAPLSEAGDLTEKYFALRNIIQKFEKVPEGPIPPSTPKFAYGKVTLEKLKTVGAALDILCPSGPIKSLYPLTFIQVKQHYGFVLYRTTLPQDCSNPAPLSSPLNGVHDRAYVAVDGIPQGVLERNNVITLNITGKAGATLDLLVENMGRVNYGAYINDFKGLVSNLTLSSNILTDWTIFPLDTEDAVRSHLGGWGHRDSGHHDEAWAHNSSNYTLPAFYMGNFSIPSGIPDLPQDTFIQFPGWTKGQVWINGFNLGRYWPARGPQLTLFVPQHILMTSAPNTITVLELEWAPCSSDDPELCAVTFVDRPVIGSSVTYDHPSKPVEKRLMPPPPQKNKDSWLDHV”, the “soluble on expression in E. coli” value is “soluble”. Take “MTYKYNCCDDGSGTTVGSVVRFDNVTLLIDPGWNPSKVSYEQCIKYWEKVIPEIDVIILSQPTIECLGAHSLLYYNFTSHFISRIQVYATLPVINLGRVSTIDSYASAGVIGPYDTNKLDLEDIEISFDHIVPLKYSQLVDLRSRYDGLTLLAYNAGVCPGGSIWCISTYSEKLVYAKRWNHTRDNILNAASILDATGKPLSTLMRPSAIITTLDRFGSSQPFKKRSKIFKDTLKKGLSSDGSVIIPVDMSGKFLDLFTQVHELLFESTKINAHTQVPVLILSYARGRTLTYAKSMLEWLSPSLLKTWENRNNTSPFEIGSRIKIIAPNELSKYPGSKICFVSEVGALINEVIIKVGNSEKTTLILTKPSFECASSLDKILEIVEQDERNWKTFPEDGKSFLCDNYISIDTIKEEPLSKEETEAFKVQLKEKKRDRNKKILLVKRESKKLANGNAIIDDTNGERAMRNQDILVENVNGVPPIDHIMGGDEDDDEEEENDNLLNLLKDNSEKSAAKKNTEVPVDIIIQPSAASKHKMFPFNPAKIKKDDYGTVVDFTMFLPDDSDNVNQNSRKRPLKDGAKTTSPVNEEDNKNEEEDGYNMSDPISKRSKHRASRYSGFSGTGEAENFDNLDYLKIDKTLSKRTISTVNVQLKCSVVILNLQSLVDQRSASIIWPSLKSRKIVLSAPKQIQNEEITAKLIKKNIEVVNMPLNKIVEFS”: the “soluble on expression in E. coli” value is “soluble”.

In the case of “MSLDNRFPVCINTMKLTMPKLEVYYPSIGGISDINVQKKMNNTILNLVYQMIEDQGYYKNTETTITGYFEIKNNQRGILSLTLSNYAFSGGAHGMTIMKSLTFNVETGEEYSLSQLFKPGSNYVKVLSELIKVQIRERDIPVIEEFCAIKPNQDFYIADKILVLYFQLYELVPYAYGFPQFPISVYTIQDIINEDGPLGRMLYEGHHHHHH”, the “soluble on expression in E. coli” value is “soluble”. Take “MGTNLPTEVGQILSAPTSIDYNYPTTGVWDASYDICLDSTPKTTGVNQQEIMIWFNHQGSIQPVGSPVGNTTIEGKNFVVWDGSNGMNNAMAYVATEPIEVWSFDVMSFVDHTATMEPITDSWYLTSIRAGLEPWSDGVGLGVDSFSAKVN”: the “soluble on expression in E. coli” value is recorded as “soluble”.

Turning to “MGSDKIHHHHHHMEVKPFRPLIYRKEIDGMISPPFDAITPKQEIELKRNPYNITYLTLPKGRDGVSHARMIMENWIENGVLLRAERDCIIVLKQIFSANSRRITRYGIIARVRVFPENGDVIPHERTFDEFVRDREILMEGIGSQLEPIFLVTLKNELPQYLKIITENMKEDNRYFGPENVENYVYYIYDHKEIQKISNILRNDIAIVADGHHRLQATKNIASRQSGLAREFWSYAMSYVTSIHDEGVLIGGVHRVISSRFRFDADRASKYFYVDQCDTIAGNDPVIYDGRFYCIRPRENVYDNIIDSLNDFLFSKTIGMSTIDLERDVIYTHDYAEVVNLVNSGSFSFGVIMPDWDKAHLVELLLTRKILPQKSTYFYPKIPSGISIDSISEFIVT”, the “soluble on expression in E. coli” value was “not soluble”. For the sequence “MSESGHRKGQAIIVQYSDSSSAYYAYAEGIEDDIIISSRYCPSNEDLLGKWIHLAIDDRSYACDTIQVIDDVFETKVFRGQVEVKINIQFDGRTARGMGMFYNDYFGYICDPNNVLHNTRDGANHNNVWVVRRNAEGLNSRWKVSSEQDDIQHIFPRPENVDKLETVVGVITTHAKLGDFYLVWSPSRPRSTICIAYKFCPSKSNLLGTWAEMRVNRSQRVQRPISVIDALYETRTIFGMTEFRIDFQQTRRFNPDYHLFYHEYFGGILDTLCIIDDVKEGGWYNGWIVYSQHSDASTYWRLAMKQTVLGPYNSPYSCLSPLQQDNNFNEPRNMDPNPPYRTRDRSRSMDRSTRHATRRVDEFTHKRRSPSPEVINVYKEPSRSHANELYDSQKNQYTSHEGHSTSSPTAENRQCHRSRSPEQSNFRPSQTVPGLSSMEQRKAHENVDWGPHRTKNVPPIRSATETPETDHRQDDQSVASTSALYLLDSPGPDPSPKLHLTSEEKELKKLKTKLSRICKLSLSFTANDSVSTPMQLHSLEEYEELIKLTNKFQ”, the “soluble on expression in E. coli” value is reported as “not soluble”. In the case of “MGLSTSNKPLSERIEESKKDVFMQKAVAKAQDAQWEKREGAREALGNWPQWRELGEQIRQHTIQYLPDYLEEFSDNVAKRGGKVFFAQTAEEANEYVKQVVLEKKAKKIVKSKSMVTTEVDIDPMLLGLDDVSVMETDLAEFILQMDDWDEPSHIVFPSIHKNREQIRQVFAKKLGYQGDNDPVNLARCAREVMRKFFLEAEIGITGCNFAIADSGLINLNTNEGNADLTISIPKTQIVLMGMERIVPTMREAEVLDNLLARSAVGQNLTTYVTFAGQKNADESDGPEEFHVVILDNGRSKALGTAFQPVLQCIRCGSCLNVCPVYRHIGGHGYGSIYPGPIGAVLSPILGGYKQFGELPYASSLCGACTETCPVKIPLHELLIEHRKVMTDDLKMKHGFEDFQMRMVGKATGSPAMFKAAMKVDHAAAGILSKQKDITVENMYNHGGYLDKGPGLVKGWTDVRDLPRPPKSSENFRSWFKKHQEGEKND”, the “soluble on expression in E. coli” value is “not soluble”. For the sequence “MAETDPKSVQDLTAVVQTLLQQMQDKFQTMSDQIIGRIDEMSTRIDDLEKNIADLMTQAGVEEIEGENKVKEGDAS”, the “soluble on expression in E. coli” value is “soluble”. Regarding “EFKDVFIEKQKGEILGVVIVESGWGSILPTVIIANMMHGGPAEKSGKLNIGDQIMSINGTSLVGLPLSTCQSIIKGLKNQSRVKLNIVRCPPVTTVLIRRPDLRYQLGFSVQNGIICSLMRGGIAERGGVRVGHRIIEINGQSVVATPHEKIVHILSNAVGEIHMKTMPAAMYRLLTAQEQPVYI”, the “soluble on expression in E. coli” value is “soluble”. With “MSIERSSPIPLYFQLAGELRAAIESGAYPPGSKLPTEGELCQQYDVSRSVVRQALQSLAHDNLIETERGRGAFVLERKVPIALVQQLDPLLESMAKAGFKLTTRVLKQERIKPPAHVAEQIGENDAVFLERLRYADGVVFLVVRNFLPYSRFPDLLQSKELEDVSLYQYLAKRYNAVATTGKRQVELARINEEAIAAQLHVEMNSYVLFNREVTYDQNKQVLEYYESWHHPDRTRLTIDLHRTY”, the “soluble on expression in E. coli” value is recorded as “not soluble”.

Consider “MLPKAARIPHAMTLHGDTRIDNYYWLRDDTRSQPEVLDYLQQENSYGHRVMASQQALQDRILKEIIDRIPQREVSAPYIKNGYRYRHIYEPGCEYAIYQRQSAFSEEWDEWETLLDANKRAAHSEFYSMGGMAITPDNTIMALAEDFLSRRQYGIRFRNLETGNWYPELLDNVEPSFVWANDSWIFYYVRKHPVTLLPYQVWRHAIGTPASQDKLIYEEKDDTYYVSLHKTTSKHYVVIHLASATTSEVRLLDAEMADAEPFVFLPRRKDHEYSLDHYQHRFYLRSNRHGKNFGLYRTRMRDEQQWEELIPPRENIMLEGFTLFTDWLVVEERQRGLTSLRQINRKTREVIGIAFDDPAYVTWIAYNPEPETARLRYGYSSMTTPDTLFELDMDTGERRVLKQTEVPGFYAANYRSEHLWIVARDGVEVPVSLVYHRKHFRKGHNPLLVYGYGSYGASIDADFSFSRLSLLDRGFVYAIVHVRGGGELGQQWYEDGKFLKKKNTFNDYLDACDALLKLGYGSPSLCYAMGGSAGGMLMGVAINQRPELFHGVIAQVPFVDVVTTMLDESIPLTTGEFEEWGNPQDPQYYEYMKSYSPYDNVTAQAYPHLLVTTGLHDSQVQYWEPAKWVAKLRELKTDDHLLLLCTDMDSGHGGKSGRFKSYEGVAMEYAFLVALAQGTLPATPAD”, for which the “soluble on expression in E. coli” value is “not soluble”. With “MRYHGGLLLGAFDDDGKIIGMSFGYPGFRNGKLYLYSHMAGVVENKKYSNVGYSLKMKQRDLAASMGYDLIAWTFDPFNPLNAYFNISKLGAITRTYIKNFYGVMNDGINRGMRTDRVVAEWWINLQIDRNCEIIDFLNDVDRYSEISTIHESSCLGFYVPPDISYFHKYPDLGSKLKDAAFEVFNALFSKGYAIVAYKRGKSNYFVFKRIENLGKRIFDPIVK”, the “soluble on expression in E. coli” value was “not soluble”. For the sequence “MLKSGRLNFLKLNINSRLLYSTNPQLTKKVIGIDLGTTNSAVAYIRDSNDKKSATIIENDEGQRTTPSIVAFDVKSSPQNKDQMKTLVGMAAKRQNAINSENTFFATKRLIGRAFNDKEVQRDMAVMPYKIVKCESNGQAYLSTSNGLIQSPSQIASILLKYLKQTSEEYLGEKVNLAVITVPAYFNDSQRQATKDAGKLAGLNVLRVINEPTAAALSFGIDDKRNNGLIAVYDLGGGTFDISILDIEDGVFEVRATNGDTHLGGEDFDNVIVNYIIDTFIHENPEITREEITKNRETMQRLKDVSERAKIDLSHVKKTFIELPFVYKSKHLRVPMTEEELDNMTLSLINRTIPPVKQALKDADIEPEDIDEVILVGGMTRMPKIRSVVKDLFGKSPNSSVNPDETVALGAAIQGGILSGEIKNVLLLDVTPLTLGIETFGGAFSPLIPRNTTVPVKKTEIFSTGVDGQAGVDIKVFQGERGLVRNNKLIGDLKLTGITPLPKGIPQIYVTFDIDADGIINVSAAEKSSGKQQSITVIPNSGLSEEEIAKLIEEANANRAQDNLIRQRLELISKADIMISDTENLFKRYEKLISSEKEYSNIVEDIKALRQAIKNFKANENDMSIDVNGIKKATDALQGRALKLFQSATKNQQNQGK”, the “soluble on expression in E. coli” value is given as “not soluble”.

For the origin of these results see the DeepSol protein solubility set.
